Measured values from paper PMC6152903 (Cell reports, 2018).

How the values were obtained:
co-IP = target: the molecule itself; test: co-IP
[1] = target: the molecule itself; test: SDS-PAGE without reducing reagent

Protein	stoichiometry N (co-IP)	stoichiometry N [1]
FLAG-ZMYND8 (Sf9) (natural protein) MHPQSLAEEEIKTEQEVVEGMDISTRSKDPGSAERTAQKRKFPSPPHSSNGHSPQDTSTSPIKKKKKPGLLNSNNKEQSELRHGPFYYMKQPLTTDPVDVVPQDGRNDFYCWVCHREGQVLCCELCPRVYHAKCLRLTSEPEGDWFCPECEKITVAECIETQSKAMTMLTIEQLSYLLKFAIQKMKQPGTDAFQKPVPLEQHPDYAEYIFHPMDLCTLEKNAKKKMYGCTEAFLADAKWILHNCIIYNGGNHKLTQIAKVVIKICEHEMNEIEVCPECYLAACQKRDNWFCEPCSNPHPLVWAKLKGFPFWPAKALRDKDGQVDARFFGQHDRAWVPINNCYLMSKEIPFSVKKTKSIFNSAMQEMEVYVENIRRKFGVFNYSPFRTPYTPNSQYQMLLDPTNPSAGTAKIDKQEKVKLNFDMTASPKILMSKPVLSGGTGRRISLSDMPRSPMSTNSSVHTGSDVEQDAEKKATSSHFSASEESMDFLDKSTASPASTKTGQAGSLSGSPKPFSPQLSAPITTKTDKTSTTGSILNLNLDRSKAEMDLKELSESVQQQSTPVPLISPKRQIRSRFQLNLDKTIESCKAQLGINEISEDVYTAVEHSDSEDSEKSDSSDSEYISDDEQKSKNEPEDTEDKEGCQMDKEPSAVKKKPKPTNPVEIKEELKSTSPASEKADPGAVKDKASPEPEKDFSEKAKPSPHPIKDKLKGKDETDSPTVHLGLDSDSESELVIDLGEDHSGREGRKNKKEPKEPSPKQDVVGKTPPSTTVGSHSPPETPVLTRSSAQTSAAGATATTSTSSTVTVTAPAPAATGSPVKKQRPLLPKETAPAVQRVVWNSSSKFQTSSQKWHMQKMQRQQQQQQQQNQQQQPQSSQGTRYQTRQAVKAVQQKEITQSPSTSTITLVTSTQSSPLVTSSGSMSTLVSSVNADLPIATASADVAADIAKYTSKMMDAIKGTMTEIYNDLSKNTTGSTIAEIRRLRIEIEKLQWLHQQELSEMKHNLELTMAEMRQSLEQERDRLIAEVKKQLELEKQQAVDETKKKQWCANCKKEAIFYCCWNTSYCDYPCQQAHWPEHMKSCTQSATAPQQEADAEVNTETLNKSSQGSSSSTQSAPSETASASKEKETSAEKSKESGSTLDLSGSRETPSSILLGSNQGSDHSRSNKSSWSSSDEKRGSTRSDHNTSTSTKSLLPKESRLDTFWD	2	
endogenous ZMYND8 (natural protein) MDISTRSKDPGSAERTAQKRKFPSPPHSSNGHSPQDTSTSPIKKKKKPGLLNSNNKEQSELRHGPFYYMKQPLTTDPVDVVPQDGRNDFYCWVCHREGQVLCCELCPRVYHAKCLRLTSEPEGDWFCPECEKITVAECIETQSKAMTMLTIEQLSYLLKFAIQKMKQPGTDAFQKPVPLEQHPDYAEYIFHPMDLCTLEKNAKKKMYGCTEAFLADAKWILHNCIIYNGGNHKLTQIAKVVIKICEHEMNEIEVCPECYLAACQKRDNWFCEPCSNPHPLVWAKLKGFPFWPAKALRDKDGQVDARFFGQHDRAWVPINNCYLMSKEIPFSVKKTKSIFNSAMQEMEVYVENIRRKFGVFNYSPFRTPYTPNSQYQMLLDPTNPSAGTAKIDKQEKVKLNFDMTASPKILMSKPVLSGGTGRRISLSDMPRSPMSTNSSVHTGSDVEQDAEKKATSSHFSASEESMDFLDKSTASPASTKTGQAGSLSGSPKPFSPQLSAPITTKTDKTSTTGSILNLNLDRSKAEMDLKELSESVQQQSTPVPLISPKRQIRSRFQLNLDKTIESCKAQLGINEISEDVYTAVEHSDSEDSEKSDSSDSEYISDDEQKSKNEPEDTEDKEGCQMDKEPSAVKKKPKPTNPVEIKEELKSTSPASEKADPGAVKDKASPEPEKDFSEKAKPSPHPIKDKLKGKDETDSPTVHLGLDSDSESELVIDLGEDHSGREGRKNKKEPKEPSPKQDVVGKTPPSTTVGSHSPPETPVLTRSSAQTSAAGATATTSTSSTVTVTAPAPAATGSPVKKQRPLLPKETAPAVQRVVWNSSSKFQTSSQKWHMQKMQRQQQQQQQQNQQQQPQSSQGTRYQTRQAVKAVQQKEITQSPSTSTITLVTSTQSSPLVTSSGSMSTLVSSVNADLPIATASADVAADIAKYTSKMMDAIKGTMTEIYNDLSKNTTGSTIAEIRRLRIEIEKLQWLHQQELSEMKHNLELTMAEMRQSLEQERDRLIAEVKKQLELEKQQAVDETKKKQWCANCKKEAIFYCCWNTSYCDYPCQQAHWPEHMKSCTQSATAPQQEADAEVNTETLNKSSQGSSSSTQSAPSETASASKEKETSAEKSKESGSTLDLSGSRETPSSILLGSNQGSDHSRSNKSSWSSSDEKRGSTRSDHNTSTSTKSLLPKESRLDTFWD		2
